Reference: patent publication US20240124575A1 (SIMCERE ZAIMING PHARMACEUTICAL, published 2024)
Like-named read-outs stand apart in the source and are kept apart here.

B1: C33B904 hIgG1 (antibody, V domains shown)
VH: EVQLVESGGGLVQPGRSLRLSCAASGFTFDDYAMHWVRQAPGKGLEWVSGIGWSGGSIVYADSVKGRFTISRDNAKNSLYLQMNSLRAEDTALYYCAKDSPYGDFFDYWGQGTLVTVSS
VL: DIVMTQSPDSLAVSLGERATINCKSSQTVFYSSNNKNYLAWYQQKPGQPPKLLISWASTRKSGVPDRFSGSGSGTDFTLTVSSLQAEDVAVYYCQHYYSTPYTFGQGTKLEIKR
notes: intact human IgG1; variable regions from US20190382481A1; also called C33B3904; C331B904
B2: C33B904 (antibody, human IgG1, kappa, V domains shown)
VH: B1 VH
VL: B1 VL
notes: control antibody, intact human IgG1 form; variable regions from US20190382481A1; also called C33B904 hIgG1; C331B904

Key:
[1] = target: T1, human CD33-His (extracellular domain Asp 18-His 259) (human, UniProt P20138 18-259); assay: competitive ELISA vs coated S006-NB146-69 3ug/mL; soluble 25ug/ml
T1 construct: range 18-259; bought protein; also called hCD33-his; human CD33 protein; not shown: His tag
T1 sequence (P20138 18-259 limits assumed): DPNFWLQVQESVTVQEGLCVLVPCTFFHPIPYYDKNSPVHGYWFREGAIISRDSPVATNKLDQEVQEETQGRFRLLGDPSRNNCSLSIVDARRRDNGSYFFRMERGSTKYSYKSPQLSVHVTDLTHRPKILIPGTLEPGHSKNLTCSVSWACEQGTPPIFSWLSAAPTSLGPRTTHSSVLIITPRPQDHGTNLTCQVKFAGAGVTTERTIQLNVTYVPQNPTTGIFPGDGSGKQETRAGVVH

monkey CD33-His protein [2] = target: T2, monkey CD33-His protein (monkey); assay: ELISA on coated monkey CD33-his
T2 construct: also called monkey CD33 protein

monkey CD33-His protein [3] = target: T2, monkey CD33-His protein; assay: ELISA on coated monkey CD33-his; remark: listed apart in the source
[4] = target: T1, human CD33-His (extracellular domain …); assay: ELISA, antigen coated
Protocol: In order to assay the binding activity of VHH-Fc to human CD33 protein, a human CD33-his protein (purchased from ACROBiosystems, Cat. No. CD3-H5226) was diluted with PBS to make a final concentration of 2 μg/mL, and then added into a 96-well ELISA plate at 100 μL/well. The plate was sealed with a plastic film and incubated at 4° C. overnight, washed twice with PBS the next day, and a blocking solution [PBS+2% (w/w) BSA] was added for blocking at room temperature for 2 h. The blocking solution was discarded, and VHH-Fc antibody or negative control antibody serially diluted from 100 nM was added at 50 μL/well. After incubation at 37° C. for 2 h, the plate was washed 3 times with PBS. A secondary antibody labeled with HRP (horseradish peroxidase) (purchased from Sigma, Cat. No. A0170) was added. After incubation for 1 h at 37° C., the plate was washed 5 times with PBS. A TMB substrate was added at 50 μL/well. After incubation at room temperature for 10 min, a stop solution (1.0 N HCl) was added at 50 μL/well. The OD450 nm values were read on an ELISA plate reader (Multimode Plate Reader, EnSight, purchased from Perkin Elmer). The assay results for the binding of the VHH-Fc to hCD33-his by ELISA are shown in FIGS. 7A and 7B and Tables 11 and 12. […] The IgG control was hIgG1, and the data in the table are OD450 nm values.

monkey CD33-His protein [5] = target: T2, monkey CD33-His protein; assay: ELISA on coated monkey CD33-his; remark: listed apart in the source
[6] = target: T3, human CD33 on U937 cells (endogenous) (human, UniProt P20138 18-364); assay: FACS, U937 cells
T3 construct: whole, on cells
T3 sequence (P20138 18-364): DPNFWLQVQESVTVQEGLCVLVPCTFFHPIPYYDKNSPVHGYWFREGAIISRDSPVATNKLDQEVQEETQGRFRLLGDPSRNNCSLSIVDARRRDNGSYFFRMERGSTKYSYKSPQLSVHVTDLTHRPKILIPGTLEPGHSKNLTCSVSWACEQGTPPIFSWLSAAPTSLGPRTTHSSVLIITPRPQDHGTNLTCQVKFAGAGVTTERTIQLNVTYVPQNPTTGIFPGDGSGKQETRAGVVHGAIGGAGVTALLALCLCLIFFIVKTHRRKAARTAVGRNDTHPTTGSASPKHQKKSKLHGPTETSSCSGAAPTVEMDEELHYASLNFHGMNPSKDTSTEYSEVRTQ
Protocol: The desired cells were expanded to a logarithmic growth phase in a T-75 cell culture flask. For adherent cells CHO-K1, the culture medium was removed by pipetting, and the cells were washed twice with a PBS buffer, digested with trypsin, and washed twice with a PBS buffer again after the digestion was stopped. For suspension cells U937, the medium supernatant was discarded by direct centrifugation, and the cell pellet was washed twice with PBS, and then incubated with a buffer containing human Fc Block (purchased from BD, Cat. No. 564220) for 15 min. After the cells obtained in the last step were subjected to cell counting, the cell pellet was resuspended to 2×10⁶ cells/mL with a blocking solution [PBS+2% (w/w) BSA] and added to a 96-well FACS reaction plate at 50 μL/well. The VHH-Fc antibody (a sample to be tested) was added at 50 μL/well, and the plate was incubated on ice for 2 h. […] After the plate was centrifuged and washed 5 times with a PBS buffer, the results were assayed and analyzed by FACS (FACS Canto™, purchased from BD Biosciences), so as to obtain the mean fluorescence intensity (MFI) of cells. Then, analysis was performed by software (GraphPad Prism8), data were fitted, and EC50 values were calculated.

human CD33-C2-his = target: T4, human CD33-C2-his (human, UniProt P20138 136-260); assay: ELISA on coated human CD33-C2-his
T4 construct: expressed in HEK293E; also called hCD33-C2-his; human CD33 protein C2-domain; not shown: His tag
T4 sequence (P20138 other isoform, or with tags, fused parts or gaps limits assumed): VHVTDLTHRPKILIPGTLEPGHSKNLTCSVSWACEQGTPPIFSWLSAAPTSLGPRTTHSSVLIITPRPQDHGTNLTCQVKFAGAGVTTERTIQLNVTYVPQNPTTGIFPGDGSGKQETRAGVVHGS
Excerpt: Plates were coated with human CD33-V-his (membrane distal end) and human CD33-C2-his (membrane proximal end), respectively, according to the ELISA method in Example 8. The VHH humanized antibodies were classified based on the membrane distal end and the membrane proximal end, as shown in FIGS. 20A-20J and Table 44, which allowed the classification of the VHH humanized antibodies into the following classes: […]

human CD33-his protein = target: T5, human CD33-his protein (human, UniProt P20138 18-259); assay: competition ELISA, coated human CD33-his, vs Biotin-C33B904 at EC80; antibody 7.81 nM
T5 construct: range 18-259; bought protein; also called hCD33-his; recombinant human CD33-his; not shown: His tag
T5 sequence (P20138 18-259 limits assumed): as the sequence (P20138 18-259 limits assumed) above
Protocol: ELISA plates were coated with 2 μg/mL human CD33-his protein according to the method in Example 5.1; the Biotin-C331B904 antibody was subjected to a gradient dilution from 15 μg/mL, and EC80 values (0.18 μg/mL) were calculated. ELISA plates were coated with 2 μg/mL human CD33-his protein; starting from 40 μg/mL, the VHH antibodies to be tested were diluted in a 1:2 dilution ratio to obtain seven concentrations and added to the ELISA plates, and then Biotin-C331904 antibodies with the EC80 concentrations were added for incubation for 2 h. The plates were washed 5 times with PBS and then […] (purchased from Sigma, Cat. No. S2438) were added for incubation for 1 h, and the plates were washed 5 times. A TMB substrate was added at 50 μL/well and incubated at room temperature for 10 min, then a stop solution (1.0 M HCl) was added at 50 μL/well. OD_{450 nm} values were read using an ELISA plate reader (Insight, purchased from PerkinElmer). Then, analysis was performed by software (GraphPad Prism8), and data were fitted for curve plotting. The results are shown in FIGS. 13A-13B and Tables 28 and 29.

monkey CD33-his protein [7] = target: T6, monkey CD33-his protein (monkey); assay: SPR (Biacore), antibody captured on Protein A chip, monkey CD33 analyte
T6 construct: bought protein; also called monkey CD33 protein (Sino Biological, Cat. No. 50712-M08H)

| Binder | inhibition rate [1] [%] | EC50 (read off the curve) (monkey CD33-His protein [2]) [nM] | EC50 (read off the curve) (monkey CD33-His protein [3]) [nM] | OD450 at 0.0001 nM [4] [OD450] | OD450 at 0.001 nM [4] [OD450] | OD450 at 0.01 nM [4] [OD450] | OD450 at 0.1 nM [4] [OD450] | OD450 at 1 nM [4] [OD450] | OD450 at 10 nM [4] [OD450] | OD450 at 100 nM [4] [OD450] | EC50 (read off the curve) (monkey CD33-His protein [5]) [nM] | EC50 [6] [nM] | Max MFI [6] [MFI] | EC50 (read off the curve) (human CD33-C2-his) [nM] | OD450 (Biotin-C33B904 signal) (human CD33-his protein) | Kd (monkey CD33-his protein [7]) [nM] | koff (monkey CD33-his protein [7]) [s⁻¹] | kon (monkey CD33-his protein [7]) [M⁻¹ s⁻¹] |
| --- | --- | --- | --- | --- | --- | --- | --- | --- | --- | --- | --- | --- | --- | --- | --- | --- | --- | --- |
| B1 | 99 | ~0.2 | ~0.1 | 0.04 | 0.05 | 0.14 | 0.53 | 1.92 | 2.55 | 2.61 | ~0.1 | 8.41 | 599 | ~0.05 | – | – | – | – |
| B2 | – | – | – | – | – | – | – | – | – | – | – | – | – | – | 1.11 | 0.565 | 0.000626 | 1.11e+06 |
